Key:
NasLPLDH = target: T1, NasLPLDH (Nocardia asteroides, UniProt U5EKS1); test: substrate specificity, dehydrogenation by recombinant enzyme; type: cell-based; details: recombinant E. coli BL21(DE3); FMN-dependent
T1 construct: gene NCAST_32_01610; pET28a, codon-optimized synthetic gene, E. coli BL21(DE3)
T1 sequence (U5EKS1 1-404): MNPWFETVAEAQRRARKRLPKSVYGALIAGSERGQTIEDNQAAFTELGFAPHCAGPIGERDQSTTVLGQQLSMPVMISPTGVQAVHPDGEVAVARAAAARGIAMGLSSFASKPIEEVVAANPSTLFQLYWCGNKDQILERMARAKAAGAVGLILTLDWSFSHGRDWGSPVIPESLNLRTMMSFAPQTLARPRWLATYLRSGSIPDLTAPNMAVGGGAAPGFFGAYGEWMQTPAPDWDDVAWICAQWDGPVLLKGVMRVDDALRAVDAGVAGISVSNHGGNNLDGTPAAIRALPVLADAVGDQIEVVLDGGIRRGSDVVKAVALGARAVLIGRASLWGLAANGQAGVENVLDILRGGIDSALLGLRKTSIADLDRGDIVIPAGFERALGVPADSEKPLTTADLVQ

ZpaCPR = tested on: T2, ZpaCPR; test: NADPH oxidation, absorbance […] nm, Michaelis-Menten fit; type: biochemical, Zygosaccharomyces parabailii; details: 0.15 mM NADPH, 200 mM PBS pH 5.5, 45 °C
T2 construct: gene CPR; pET28a, codon-optimized synthetic gene, E. coli BL21(DE3), Ni-NTA purified

CduCPR = target: T3, CduCPR (Candida dubliniensis, UniProt B9WJQ5); test: whole-cell reduction to D-pantolactone; type: cell-based; details: E. coli cells co-expressing EsGDH
T3 construct: gene CPR-C2; pACYCDuet-1, co-expressed with EsGDH in E. coli BL21(DE3) cells
T3 sequence (B9WJQ5 1-309): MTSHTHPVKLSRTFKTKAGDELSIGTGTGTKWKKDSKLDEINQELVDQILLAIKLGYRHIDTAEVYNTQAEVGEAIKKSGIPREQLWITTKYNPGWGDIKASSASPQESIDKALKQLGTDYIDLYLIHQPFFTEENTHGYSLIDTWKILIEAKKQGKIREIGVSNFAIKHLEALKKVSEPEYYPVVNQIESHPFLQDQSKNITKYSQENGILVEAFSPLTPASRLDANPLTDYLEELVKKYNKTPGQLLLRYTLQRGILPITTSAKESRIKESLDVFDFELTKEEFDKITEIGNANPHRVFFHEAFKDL

purified protein = substrate: CC1(C)COC(=O)[C@H]1O; test: purified protein; type: biochemical, Amycolatopsis methanolica; details: 0.15 mM FMN, 200 mM PBS pH 8.0, 30 °C

For `CC1(C)COC(=O)[C@H]1O` [L-pantolactone], the “substrate specificity, dehydrogenation by recombinant enzyme” value (NasLPLDH) was “all five LPLDHs showed the capacity to catalyze the dehydrogenation of L-pantolactone but not D-pantolactone”.

In the case of `CC1(C)COC(=O)C1=O` [ketopantolactone], the Km (ZpaCPR) is reported as 3.65 ± 0.58 mM and the “whole-cell reduction to D-pantolactone” value (CduCPR) is reported as “used to catalyze the reduction of ketopantolactone, affording the single D-enantiomer”.

B1: AmeLPLDH (Amycolatopsis methanolica 239) (protein)
chain: MSNGWFETVAEAQRRARKRLPKSVYGALVAGSERGITVDDNIAAFAELGFAPHVAGLSDKRELGTTVMGQPISLPVVISPTGVQAVHPDGEVAVARAAAARGTAMGLSSFASKSIEEVAAANPQTFFQMYWVGSRDVLVQRMERARAAGAVGLIMTLDWSFSTGRDWGSPVIPEKLDLKAMARFAPEGITRPKWLWDFAKTRKLPDLTTPNLTPPGGTAPTFFGAYGEWMQTPLPTWEDVAWLREQWGGPFMLKGVMRVDDAKRAVDAGVTAISVSNHGGNNLDGTPAPIRALPAIADAVGGDVEVLLDGGIRRGSDVVKAIALGAKAVLIGRAYLWGLAANGQAGVENVLDILRGGIDSAVLGLGKTSIHELTRDDVVIPPGFERALGVPKS
notes: pET28a, codon-optimized synthetic gene, E. coli BL21(DE3), Ni-NTA purified, Brij 35 solubilised
With B1 the Km (purified protein) was 0.57 ± 0.04 mM, the Vmax (purified protein) was 52.5 µmol/min/mg and the kcat (purified protein) was 36.41 ± 0.29 s⁻¹. It also gave a kcat/Km (purified protein) of 63850 ± 510 M⁻¹ s⁻¹.

From article PMC10384591, “Multi-Enzymatic Cascade for Efficient Deracemization of DL-Pantolactone into D-Pantolactone” (Molecules, 2023)
